According to PMC6908506, “Development of Foot-and-Mouth Disease Virus-Neutralizing Monoclonal Antibodies Derived From Plasmablasts of Infected Cattle and Their Germline Gene Usage” (Frontiers in Immunology, 2019):

B1: B54 (antibody, V domains shown)
VH: QVQLRESGPSLVKPSQTLSLTCTVSGFSLSSNAVVRVRQAPGKTLEWLGGICSGGATSFNPALKSRLSITKDNSKSQVSLSVSSVTPEDTATYYCMRVGSCFGCGDRCGYGYPYTYVDVWGQGLLVTVSP
VL: QAVLTQPSSVSGSLGQRVSITCSGSSSNVGTGNYVSWFQQIPGSAPRTLIYGATSRASGVPDRFSGSRSGNTATLTISSLQAEDEADYFCASYQIGNTAVFGSGTTLTVL
B2: E32 (antibody, V domains shown)
VH: QVQLRESGPSLVKPSQTLSLTCTVSGFSLSNYALNWVRQAPGKALECLGGIGPSGHTDYNPALKSRLIITKDNSKNQVSLSVSSVTPEDTATYICARDSGIYGTSGWGCIGGFDDNYIDAWGHGLLVTVSS
VL: QAVLTQPSSVSGSLGQRVSITCSGSSNNIGAHGVGWYQQIPGSGLRTIIYNNSKRPSGVPDRFSGSKSGNTATLTISSLQAGDEADYFCATSDYSTRSSAFGSGTTLTVL
B3: 62 (antibody, V domains shown)
VH: QVQLRESGPSLVKPSQTLSLTCTVSGFSLSDKDVGWVRQAPGTALEWLAVIYNAGSTSYNPTLESRLSITKDNSKSQVSLSLSSVTTEDTATYYCALGNYWAWGQGLLVTVSS
VL: QAALTQPSSVSGSLGQRVSITCSGSSSNIGRGNYVNWFQQIPGSAPRTLIYGATNRASGVPDRFSGSRSGDTATLTISPLQAEDEADYFCAAYDINGNAVFGSGTTLTVL
B4: B51 (antibody, V domains shown)
VH: QVQLRESGPSLVKPSQTLSLTCTVSGFSLSSYGVIWVRQAPGKALECLGQITTGGITGYNPALKSRLSITKDNSEGQVSLSLSSVTTEDTATYYCVKEHDNYGDFSGGCLHAAYVDTWGQGLLVTVSS
VL: QAVLTQPSSVSGSLGQRVSITCSGSSSNIGLYAVGWYQQVPGSGLRSIIYSSRSRPSGVPDRFSGSKSGNTATLTISSLQAEDEADYFCVAYDSSSDSAIFGSGTTLTVL
B5: E28 (antibody, V domains shown)
VH: QVQLRESGPSLVKPSQTLSLTCTISGFSLSDYAVAWVRQAPGKAPEWVGGISTGGRTNYNPTLESRLSITKDNAKSQISLTVSSVTPEDTATYLCLRLACYDHEGYRCFGYDLNWGVDAWGQGLLVSVSS
VL: QAVLTQPSSVSGSLGQRVSITCSGSSTNIGTYYVGWYQQVPGSGLRTIIYGTTNRPSGVPDRFSGSKSSGNTATLTISSLQAEDEADYFCVTYDSTITPSAVFGSGTTLTVL
B6: A7 (antibody, V domains shown)
VH: QVQLRESGPSLVKPSQTLSLTCTVSGFSLSSYAVNWVRQAPGKALECLGGISSSGSTGYKPALKSRLSITKDNSKSQVSLSVSNVTPEDTATYYCVKSYWDYNDYGCCSGGNGVGFDAWGQGLLVTVSS
VL: QAVLTQPSSVSGSLGQRVSITCSGSSNNIGSYAVGWYQQVPGSGLRTIIYSSSSRPSGVPDRFSGSKSGNTATLTISSLQAEDEADYFCATADYSRSTAVFGSGTILTVL
B7: B81 (antibody, V domains shown)
VH: QVQLRESGPSLVKPSQTLSLTCTVSGFSLSNYAIGWVRQAPGKAPEWVVDTDVDGGTAYNPALKSRLSITKDNSKSQVSLSLNGVTPEDTATYYCVKLSRESAWLFFHVDAWGQGLLITISS
VL: QAVLTQPSSVSGSLGQSVSITCSGSSGNIGRYGVDWYQQVPGSGLRTIIYASSRRPSGVPDRFSGSKSGNTATLTISSLQAEDEADYFCAGGDENIIVPLFGAGTTLTVL
notes: also called HRP-B81
B8: F136 (antibody, V domains shown)
VH: QVQLRESGPSLVKPSQTLSLTCTVSGFSLSSKGVHWIRQAPGKALEWLGSTWSFGSAFNPALKSRLSITKDNSKSQVALSLSTVTPEDTATYYCARELYNGGSTWDAINGYNEERYYFDAWGQGLLVTVSS
VL: QAVLTQPSSVSGSLGQSVSITCSGSSSNVGYGNYVSWFQQIPGSAPRMLIYGATSRASGVPYRFSGSRSGNTATLTINSLQAEDEADYFCASPDSSSSGYFAVFGSGTTLTVL

molecular target: T1, FMDV O/Mya/98 146S antigen (Foot-and-mouth disease virus serotype …, UniProt G8JKC2, strain); test: ELISA; settings: both partners purified
T1 construct: also called purified virus antigen; copies: + + +

Binder	binding result
B1	binds
B2	binds
B3	binds
B4	binds
B5	binds
B6	binds
B7	binds

molecular target: T1, FMDV O/Mya/98 146S antigen; test: cell-based or functional assay; settings: not given

Binder	virus neutralizing test on BHK-21 cells, IC50
B8	1.67 µg/mL
